Data from the nanobody polyreactivity screen of Harvey et al. (2022).

Assay: yeast display, Sf9 membrane polyspecificity reagent, FACS + sequencing; frameworks hold sequencing errors
Method in brief: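 A nanobody's polyreactivity label depends on the gate it was sorted from. Yeast display cells were stained with 10% biotinylated, detergent-solubilized Sf9 membrane reagent for 1 hour at 4 °C, enriched on streptavidin microbeads and sorted by FACS. The low and high (top ~1%) gates were set on anti-HA fluorescence for expression and streptavidin fluorescence for reagent binding.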

Row | Sequence | polyreactivity (PSR sort gate)
1 | QVQLVESGGGLVQAGGSLRLSCAASGSIFVGNAMGWYRQAPGKERELVATITSGCSTYYADSVKGRFTISRDNAMNTVYLQMNSLKPEVTAVYYCAADYDFSKFDYDYWGQGTQVTVSS | low polyreactivity
2 | QVQLVESGGGLVQAGGSLRLSCAASGSIFVGNAMGWYRQAPGKERELVSTISRGARTKYADSVKGRFTISRDNAKNTVYLQMNSLKPEDTAVYYCNKVSSYYVFYTPYYSWGQGTQVTVSS | low polyreactivity
3 | QVQLVESGGGLVQAGGSLRLSCAASGSIFVGYAMGWYRQAPGKERELVAAINSSGDRTFYADSVKGRFTISRDNAKNTVYLQMNSLKREDTAVYYCNRVYVRAGVSVAYNYWGQGTQVTVSS | high polyreactivity
4 | QVQLVESGGGLVQAGGSLRLSCAASGSIFVGYAMGWYRQAPGKERELVAAIRWSGGSTYYADSVKGRFTISRDNAKNTVYLQMNSLKPEDTAVYYCAKYFPAGYYYWGQGTQVTVSS | low polyreactivity
5 | QVQLVESGGGLVQAGGSLRLSCAASGSIFVGYVMGWYRQAPGKERELVARIRWGGGRTYYADSVKGRFTISRDNAKNTVYLQMNSLKPEDTAVYYCNARYSYHSVGYWGQGTQVTVSS | high polyreactivity
6 | QVQLVESGGGLVQAGGSLRLSCAASGSIFVINAMGWYRQAPGKERELVAAIDWSGDSTYYADSVKGRFTISRDNAKNTVYLQMNSLKPEDTAVYYCAADLDSRGTYGRYEYWGQGTQVTVSS | low polyreactivity
7 | QVQLVESGGGLVQAGGSLRLSCAASGSIFVIYAMGWYRQAPGKERELVAAITDSATTNYADSVKGRFTISRDNAKNTVYLQMNSLKPEDTAVYYCAAEYSSYPTAWSTYEFDYWGQGTQVTVSS | low polyreactivity
8 | QVQLVESGGGLVQAGGSLRLSCAASGSIFVIYTMGWYRQAPGKERELVAVITWSTGNTYYADSVKGRFTISRDNAKNTVYLQMNSLKPEDTAVYYCAARTTSRWRSCAYYYWGQGTQVTVSS | high polyreactivity
9 | QVQLVESGGGLVQAGGSLRLSCAASGSIFVKNAMGWYRQAPGKERELVAAISRSGGSTYYADSVKGRFTISRDNAKYTVYLQMNSLKPEDTAVYYCNAYGSYWDFDEWGQGTQVTVSS | high polyreactivity
10 | QVQLVESGGGLVQAGGSLRLSCAASGSIFVKNAMGWYRQAPGKERELVATISRRGGSTYYADSVKGRFTISRDNAKNTVYLQMNSLKPEDTAVYYCNRLGTTVSLEYYYWGQGTQVTVSS | high polyreactivity
11 | QVQLVESGGGLVQAGGSLRLSCAASGSIFVKYAMGWYRQATGKERELVASITGRGGSTYYADSVKGRFTISRDNAKNTVYFQMNSLIPEDTAVYYCAARVASRHGWHNYWGQGTQVTVSS | high polyreactivity
12 | QVQLVESGGGLVQAGGSLRLSCAASGSIFVLYAMGLYRQAPGTERELVAAITTGGGTNYADSVKGRFTISRDNAKNTVYLQINSLKPEDTAVYYCAADTGWYDDWTHDYWGQGTQVTVSS | low polyreactivity
13 | QVQLVESGGGLVQAGGSLRLSCAASGSIFVLYAMGWSRQAPGKERELVAAITTGGGTNYADSVKGRFTISRDNAKNTVYLQMNSLKPEDTAVYYCAAADSTWFDWGNYWYYYWGQGTQVTVSS | low polyreactivity
14 | QVQLVESGGGLVQAGGSLRLSCAASGSIFVNNAMGWYRQAHGKERELVAAISGSGSSTHYAHSVKGRFTISRDNAKNTVYLQMNSLKPEDTAVYYCNRGRRDLDFNYWGQGTQVTVSS | low polyreactivity
15 | QVQLVESGGGLVQAGGSLRLSCAASGSIFVNYAMGWSRQAPGKERELVAAISRDGGRTYYADSVKGRFTISRDNAKNTVYLQMNSLKPEDTAVYYCNAVIPSTAYYRYGYWGQGTQVTVSS | high polyreactivity
16 | QVQLVESGGGLVQAGGSLRLSCAASGSIFVNYAMGWYRQAPGKERELVAAISWRGGITYADSVKGRFTISRDNAKNTVYLQLNSLKPEDTAVYYCARRGYGAGPSYRLGDYWGQGTQVTVSS | low polyreactivity

Row | Sequence | polyreactivity (PSR sort gate)
17 | QVQLVESGGGLVQAGGSLRLSCAASGSIFVNYAMGWYRQAPGKERELVAAITDGGRTYYADSVKGRFTISRDNAKNTVYLQMNSLKPEDTAVYYCAVDGIRYWGSRDESGYDYWGQGTQVTVSS | low polyreactivity
18 | QVQLVESGGGLVQAGGSLRLSCAASGSIFVPNAMGRYRQAPGKERELVAAITSGGSTYYADSVKGRFTISRDNAKNTVYLQMNSLKPEDTAVYYCAADIGSQYFGHYDYWGQGTQVTVSS | high polyreactivity
19 | QVQLVESGGGLVQAGGSLRLSCAASGSIFVPYAMGWYRQAPGKERELVAAISYSGGTTYADSVKGRFTISRDNAKNTVYLQMNRVKPEDTAVYYCAARYWRRWRQSVSLDYWGQGSQVTVSS | high polyreactivity
20 | QVQLVESGGGLVQAGGSLRLSCAASGSIFVPYAMGWYRQAPGKERELVAAITRSSGSTYYADSVKGRFTISRDNAKNTVYLQMNSLKPEDTAVYYCAADFLLEFDYWGQGTQVTVSS | low polyreactivity
21 | QVQLVESGGGLVQAGGSLRLSCAASGSIFVPYAMGWYRQAPWKERELVAAISRGGDTNYADSVKGRFTISRDKAKNTVYLQMNSLIPEDTAVSYCNRARHQYSRWHGGYYYWGQCTQVTVSS | low polyreactivity
22 | QVQLVESGGGLVQAGGSLRLSCAASGSIFVPYAMGWYRQEPGKERELVAAISRRGGRTNYADSVKGRFTISRDNAKNTVYLQMNSLKPEDTAVYYCADGWRGVYYTRYDSWGQGTQVTVSS | high polyreactivity
23 | QVQLVESGGGLVQAGGSLRLSCAASGSIFVPYARGWYRQAPGKERELVAAISNGDSTYYADSVKGRFTISRDNAKNTVYLQMNSLKPEDTAVYYCAADAVKASVSYIVPYAAYDYWGQGTQVTVSS | low polyreactivity
24 | QVQLVESGGGLVQAGGSLRLSCAASGSIFVPYDMGWYRQAPGKERELVAVISTDDGTYYADSVKGRFTISRDNAKNTVYLQMNSLKPEDTAVYYCAADRWYREYDYWGQGTQVTVSS | low polyreactivity
25 | QVQLVESGGGLVQAGGSLRLSCAASGSIFVQYAMGWCRQAPGKDRELVAAISDSGGSTYYADSVKGRFTISRDNAKNTVYVQMNSLKPEDTAVYYCAAVSTNSYSHRFGWGQGTQVTVSS | low polyreactivity
26 | QVQLVESGGGLVQAGGSLRLSCAASGSIFVRNAMGWYRQAPGKERELVAAISGSGGRTYYADSVKGRFTISRDIAKNTVYLQMNSLKPEDTAVYYCARVPSGQLEYDYWGQGTQVTVSS | high polyreactivity
27 | QVQLVESGGGLVQAGGSLRLSCAASGSIFVRNGMGWYRQAPGKERELVASITSGTITYYADSVKGRFTISRDNAKNTVYLQMNSLKPEDTAVYYCAAYQYPADFKLYYYWGQGTQVTVSS | high polyreactivity
28 | QVQLVESGGGLVQAGGSLRLSCAASGSIFVSEYVMGWYRQAPGKERELVARIRWSSGSTYYADSVKGRFTISRDNAKNTVYLQMNSLKPEDTAVYYCAKATSSFYHYRYDYWGQGTQVTVSS | low polyreactivity
29 | QVQLVESGGGLVQAGGSLRLSCAASGSIFVSEYVMGWYRQAPGKERELVARIRWSSGSTYYADSVKGRFTISRDNAKNTVYLQMNSLKPEDTAVYYCNKDYYYVIGWTYHRSYHYDYWGQGTQVTVSS | low polyreactivity
30 | QVQLVESGGGLVQAGGSLRLSCAASGSIFVSYAMGWYRQAPGKDRELVAAITSAGTTYYADSVKGRFTISRDNAKNTVYLQMNSLNPEDTAVYYCNTDASFKRTRVSPETEYGYWGQGTQVTVSS | low polyreactivity
31 | QVQLVESGGGLVQAGGSLRLSCAASGSIFVSYAMGWYRQAPGKERELVAAITRGGSTNYADSVKGRFTISRDNAKNTVYLQMNSLKPEDTAVYYCAAAYRRGGPPLDYWGQGTQVTVSS | low polyreactivity
